Like-named read-outs stand apart in the source and are kept apart here. Blank lines part the entries; values can stand above or below the binder they belong to.
Tests used:
[1] = target: T1, recombinant human cardiotrophin-like cytokine factor 1 (CLCF1) (human, UniProt Q9UBD9 28-225); assay: ELISA
T1 chain: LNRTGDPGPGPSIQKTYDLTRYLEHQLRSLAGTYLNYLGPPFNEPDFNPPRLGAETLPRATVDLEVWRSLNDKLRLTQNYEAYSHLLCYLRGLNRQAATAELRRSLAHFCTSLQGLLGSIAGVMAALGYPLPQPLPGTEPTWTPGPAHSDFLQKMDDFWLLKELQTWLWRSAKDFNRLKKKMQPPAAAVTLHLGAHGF

[2] = target: T1, recombinant human cardiotrophin-like …
[3] = target: T1, recombinant human cardiotrophin-like …
[4] = target: 3; assay: yeast display binding; apparent Kd
[5] = target: 1; assay: yeast display binding; apparent Kd
[6] = target: 2; assay: yeast display binding; apparent Kd
[7] = target: 5; assay: yeast display binding; apparent Kd

Kd [1]: 0.075 nM
B1: eCNTFR-HIS (soluble engineered CNTFR with His-tag) (receptor)
chain: QRHSPQEAPHVQYERLGSDVTLPCGTANWDAAVTWRVNGTDLAPDLLNGSQLVLHGLELGHSGLYACFHRDSWHLRHQVLLHVGLPPQEPVLSCRSNTYPKGFYCSWHLPTPTYIPNTFNVTVLHGSKIMVCEKDPALKNRCHIRYMHLFSPIKHNVSISVSNALGHNATAITFDEFTIVKPDPPENVVARPVPSNPRRLEVTWQTPSTWPDPEFFPLKFFLRYRPLILDQWQHVELSDGTAHTIAAAYAGKEYIIQVAAKDNEFGTWSDWSVAAHATPWTEEPRHLTTEAQAAETTTSTTSSLAPPPTTKICDPGELGS

Kd [2]: 19 nM | Kd [3]: 0.019 nM
B2: yeast-displayed CNTFR variant 4 (R110Q, T174P, S237F, I287F) (protein)
chain: VYAQRHSPQEAPHVQYERLGSDVTLPCGTANWDAAVTWRVNGTDLAPDLLNGSQLVLHGLELGHSGLYACFHRDSWHLRHQVLLHVGLPPQEPVLSCRSNTYPKGFYCSWHLPTPTYIPNTFNVTVLHGSKIMVCEKDPALKNRCHIRYMHLFSPIKYKVSISVSNALGHNATAITFDEFTIVKPDPPENVVARPVPSNPRRLEVTWQTPSTWPDPEFFPLKFFLRYRPLILDQWQHVELSDGTAHTITDAYAGKEYIIQVAAKDNEFGTWSDWSVAAHATPWTEEPRHLTTEAQAAETTTSTTSSLAPPPTTKICDPGELGS

Kd [1]: 0.063 nM
B3: eCNTFR-Fc (soluble engineered CNTFR fused to mouse IgG2a Fc) (Fc fusion)
chain: QRHSPQEAPHVQYERLGSDVTLPCGTANWDAAVTWRVNGTDLAPDLLNGSQLVLHGLELGHSGLYACFHRDSWHLRHQVLLHVGLPPQEPVLSCRSNTYPKGFYCSWHLPTPTYIPNTFNVTVLHGSKIMVCEKDPALKNRCHIRYMHLFSPIKHNVSISVSNALGHNATAITFDEFTIVKPDPPENVVARPVPSNPRRLEVTWQTPSTWPDPEFFPLKFFLRYRPLILDQWQHVELSDGTAHTIAAAYAGKEYIIQVAAKDNEFGTWSDWSVAAHATPWTEEPRHLTTEAQAAETTTSTTSSLAPPPTTKICDPGELGSRRLEPRGPTIKPCPPCKCPAPNLLGGPSVFIFPPKIKDVLMISLSPIVTCVVVDVSEDDPDVQISWFVNNVEVHTAQTQTHREDYNSTLRVVSALPIQHQDWMSGKEFKCKVNNKDLPAPIERTISKPKGSVRAPQVYVLPPPEEEMTKKQVTLTCMVTDFMPEDIYVEWTNNGKTELNYKNTEPVLDSDGSYFMYSKLRVEKKNWVERNSYSCSVVHEGLHNHHTTKSFSRTPGK

Kd [4]: 49 nM | Kd [5]: 4100 nM | Kd [6]: 890 nM | Kd [7]: 740 nM
B4: CLCF1 (ligand)
chain: T1 chain
